According to the RNAGym collection of RNA variant scans (doi:10.7554/elife.80360):

B1: Twister Ribozyme (parent)
chain: AACACUGCCAAUGCCGGUCCCAAGCCCGGAUAAAAGUGGAGGGGGCGG

Variants of: B1
Experiment: self-cleavage, relative activity (ratio to wild type); higher = more cleavage; co-transcriptional

Q: With AACACUGCCAAUGCCGGUCCCAAGCCCGGAUAAAAGUGAUGGGGGCGG [G39A A40U] as the variant, how does the self-cleavage read?
A: 0.161

Q: With AACACUGCCAAUGCCGGUCCCAAGCCCGGAUAAAAGUGACGGGGGCGG [G39A A40C] as the variant, how does the self-cleavage read?
A: 0.139

Q: For AACACUGCCAAUGCCGGUCCCAAGCCCGGAUAAAAGUGAGGGGGGCGG [G39A A40G], which self-cleavage is on record?
A: 0.145

Q: Which self-cleavage does the source give for AACACUGCCAAUGCCGGUCCCAAGCCCGGAUAAAAGGGGAGGGGGCAG [U37G G47A] here?
A: 0.673

Q: Which self-cleavage does the source give for AACACUGCCAAUGCCGGUCCCAAGCCCGGAUAAAAGGGGAGGGGGCCG [U37G G47C] here?
A: 0.306

Q: Which self-cleavage does the source give for AACACUGCCAAUGCCGGUCCCAAGCCCGGAUAAAAGUCGCGGGGGCGG [G38C A40C] here?
A: 0.134

Q: Which self-cleavage does the source give for AACACUGCCAAUGCCGGUCCCAAGCCCGGAUAAAAGUCGGGGGGGCGG [G38C A40G] here?
A: 0.134

Q: For AACACUGCCAAUGCCGGUCCCAAGCCCGGAUAAAAGUAGAGGGGACGG [G38A G45A], which self-cleavage is on record?
A: 0.797

Q: With AACACUGCCAAUGCCGGUCCCAAGCCCGGAUAAAAGAGGAGUGGGCGG [U37A G42U] as the variant, how does the self-cleavage read?
A: 0.153

Q: For AACACUGCCAAUGCCGGUCCCAAGCCCGGAUAAAAGAGGAGAGGGCGG [U37A G42A], which self-cleavage is on record?
A: 0.129

Q: Which self-cleavage does the source give for AACACUGCCAAUGCCGGUCCCAAGCCCGGAUAAAAGAGGAGCGGGCGG [U37A G42C] here?
A: 0.252

Q: For AACACUGCCAAUGCCGGUCCCAAGCCCGGAUAAAAGGGGAGGGGGGGG [U37G C46G], which self-cleavage is on record?
A: 0.79

Q: Which self-cleavage does the source give for AACACUGCCAAUGCCGGUCCCAAGCCCGGAUAAAAGGGGAGGGGGUGG [U37G C46U] here?
A: 0.76

Q: With AACACUGCCAAUGCCGGUCCCAAGCCCGGAUAAAAGCGGCGGGGGCGG [U37C A40C] as the variant, how does the self-cleavage read?
A: 0.0942

Q: Which self-cleavage does the source give for AACACUGCCAAUGCCGGUCCCAAGCCCGGAUAAAAGCGGGGGGGGCGG [U37C A40G] here?
A: 0.161

Q: Which self-cleavage does the source give for AACACUGCCAAUGCCGGUCCCAAGCCCGGAUAAAAGCGGUGGGGGCGG [U37C A40U] here?
A: 0.0912

Q: For AACACUGCCAAUGCCGGUCCCAAGCCCGGAUAAAAGUAGAGCGGGCGG [G38A G42C], which self-cleavage is on record?
A: 0.247

Q: For AACACUGCCAAUGCCGGUCCCAAGCCCGGAUAAAAGUAGAGAGGGCGG [G38A G42A], which self-cleavage is on record?
A: 0.176

Q: For AACACUGCCAAUGCCGGUCCCAAGCCCGGAUAAAAGCGGAGGGAGCGG [U37C G44A], which self-cleavage is on record?
A: 0.69

Q: With AACACUGCCAAUGCCGGUCCCAAGCCCGGAUAAAAGCGGAGGGUGCGG [U37C G44U] as the variant, how does the self-cleavage read?
A: 0.768

Q: Which self-cleavage does the source give for AACACUGCCAAUGCCGGUCCCAAGCCCGGAUAAAAGCGGAGGGCGCGG [U37C G44C] here?
A: 0.738

Q: For AACACUGCCAAUGCCGGUCCCAAGCCCGGAUAAAAGUCGAGGGGGCGC [G38C G48C], which self-cleavage is on record?
A: 0.977

Q: With AACACUGCCAAUGCCGGUCCCAAGCCCGGAUAAAAGUCGAGGGGGCGA [G38C G48A] as the variant, how does the self-cleavage read?
A: 0.974

Q: With AACACUGCCAAUGCCGGUCCCAAGCCCGGAUAAAAGGGGACGGGGCGG [U37G G41C] as the variant, how does the self-cleavage read?
A: 0.113

Q: For AACACUGCCAAUGCCGGUCCCAAGCCCGGAUAAAAGGGGAUGGGGCGG [U37G G41U], which self-cleavage is on record?
A: 0.145

Q: Which self-cleavage does the source give for AACACUGCCAAUGCCGGUCCCAAGCCCGGAUAAAAGGGGAAGGGGCGG [U37G G41A] here?
A: 0.209

Q: With AACACUGCCAAUGCCGGUCCCAAGCCCGGAUAAAAGUUGAGGAGGCGG [G38U G43A] as the variant, how does the self-cleavage read?
A: 0.154

Q: With AACACUGCCAAUGCCGGUCCCAAGCCCGGAUAAAAGUUGAGGCGGCGG [G38U G43C] as the variant, how does the self-cleavage read?
A: 0.126

Q: With AACACUGCCAAUGCCGGUCCCAAGCCCGGAUAAAAGUUGAGGUGGCGG [G38U G43U] as the variant, how does the self-cleavage read?
A: 0.156

Q: With AACACUGCCAAUGCCGGUCCCAAGCCCGGAUAAAAGCGGAGGGGGCGA [U37C G48A] as the variant, how does the self-cleavage read?
A: 0.639

Q: Which self-cleavage does the source give for AACACUGCCAAUGCCGGUCCCAAGCCCGGAUAAAAGCGGAGGGGGAGG [U37C C46A] here?
A: 0.71

Q: For AACACUGCCAAUGCCGGUCCCAAGCCCGGAUAAAAGCGGAGGGGGGGG [U37C C46G], which self-cleavage is on record?
A: 0.706

Q: With AACACUGCCAAUGCCGGUCCCAAGCCCGGAUAAAAGUCGAGGGGGUGG [G38C C46U] as the variant, how does the self-cleavage read?
A: 0.855

Q: For AACACUGCCAAUGCCGGUCCCAAGCCCGGAUAAAAGUAGAGGGGGCGG [G38A], which self-cleavage is on record?
A: 0.965

Q: Which self-cleavage does the source give for AACACUGCCAAUGCCGGUCCCAAGCCCGGAUAAAAGUCGAGGGGGCGG [G38C] here?
A: 0.951

Q: With AACACUGCCAAUGCCGGUCCCAAGCCCGGAUAAAAGUUGAGGGGGCGG [G38U] as the variant, how does the self-cleavage read?
A: 0.923

Q: For AACACUGCCAAUGCCGGUCCCAAGCCCGGAUAAAAGUCGAGGGGGCUG [G38C G47U], which self-cleavage is on record?
A: 0.76

Q: With AACACUGCCAAUGCCGGUCCCAAGCCCGGAUAAAAGUCGAGGGGGCCG [G38C G47C] as the variant, how does the self-cleavage read?
A: 0.388

Q: For AACACUGCCAAUGCCGGUCCCAAGCCCGGAUAAAAGUCGAGGGGGCAG [G38C G47A], which self-cleavage is on record?
A: 0.737

Q: Which self-cleavage does the source give for AACACUGCCAAUGCCGGUCCCAAGCCCGGAUAAAAGUUGACGGGGCGG [G38U G41C] here?
A: 0.149

Q: Which self-cleavage does the source give for AACACUGCCAAUGCCGGUCCCAAGCCCGGAUAAAAGUUGAUGGGGCGG [G38U G41U] here?
A: 0.196

Q: Which self-cleavage does the source give for AACACUGCCAAUGCCGGUCCCAAGCCCGGAUAAAAGUUGAAGGGGCGG [G38U G41A] here?
A: 0.162

Q: With AACACUGCCAAUGCCGGUCCCAAGCCCGGAUAAAAGUAGAGGGUGCGG [G38A G44U] as the variant, how does the self-cleavage read?
A: 0.846

Q: Which self-cleavage does the source give for AACACUGCCAAUGCCGGUCCCAAGCCCGGAUAAAAGUAGAGGGAGCGG [G38A G44A] here?
A: 0.897

Q: With AACACUGCCAAUGCCGGUCCCAAGCCCGGAUAAAAGUUGAGCGGGCGG [G38U G42C] as the variant, how does the self-cleavage read?
A: 0.177

Q: Which self-cleavage does the source give for AACACUGCCAAUGCCGGUCCCAAGCCCGGAUAAAAGUUGAGAGGGCGG [G38U G42A] here?
A: 0.129

Q: Which self-cleavage does the source give for AACACUGCCAAUGCCGGUCCCAAGCCCGGAUAAAAGUUGAGUGGGCGG [G38U G42U] here?
A: 0.12

Q: With AACACUGCCAAUGCCGGUCCCAAGCCCGGAUAAAAGCGGAGGGGGCCG [U37C G47C] as the variant, how does the self-cleavage read?
A: 0.341

Q: For AACACUGCCAAUGCCGGUCCCAAGCCCGGAUAAAAGUAGAGGGGGAGG [G38A C46A], which self-cleavage is on record?
A: 0.875

Q: For AACACUGCCAAUGCCGGUCCCAAGCCCGGAUAAAAGUAGAGGGGGGGG [G38A C46G], which self-cleavage is on record?
A: 0.966

Q: For AACACUGCCAAUGCCGGUCCCAAGCCCGGAUAAAAGAGGAGGGGGCAG [U37A G47A], which self-cleavage is on record?
A: 0.457

Q: Which self-cleavage does the source give for AACACUGCCAAUGCCGGUCCCAAGCCCGGAUAAAAGUCAAGGGGGCGG [G38C G39A] here?
A: 0.243

Q: Which self-cleavage does the source give for AACACUGCCAAUGCCGGUCCCAAGCCCGGAUAAAAGGGUAGGGGGCGG [U37G G39U] here?
A: 0.114

Q: Which self-cleavage does the source give for AACACUGCCAAUGCCGGUCCCAAGCCCGGAUAAAAGGGCAGGGGGCGG [U37G G39C] here?
A: 0.143
